Measured values published in PMC11947617, “Fine‐tuned interactions between globular and disordered regions of single‐stranded DNA binding (SSB) protein are required for dynamic condensation under physiological conditions” (Protein Science : A Publication of the Protein Society, 2025).
No end group written: not given here. fluorescein = fluorescein label

Biological target: T1, Escherichia coli single-stranded DNA binding (SSB) protein, wild type (E. coli, UniProt P0AGE0 1-178)
T1 construct: E. coli SSB, wild type; OB domain aa 1-112, IDL aa 113-177 with the CTP aa 169-177; homotetramer of 19-kDa subunits; Construct as described in Harami et al. (2020); also called SSB-WT; WT; source: E. coli ER2566, purified (Polymin P, ammonium sulfate, heparin, MonoQ)
Assay: fluorescence polarisation; 15 nM flu-CTP titrated with SSB or SSBdC; standard LLPS buffer (20 mM Tris-OAc pH 7.5, 50 mM KGlu, 5 mM Mg(OAc)2), no PEG; 25°C; quadratic binding equation
Conditions: both partners purified

T1 sequence (P0AGE0 whole entry, the tested form may be a part): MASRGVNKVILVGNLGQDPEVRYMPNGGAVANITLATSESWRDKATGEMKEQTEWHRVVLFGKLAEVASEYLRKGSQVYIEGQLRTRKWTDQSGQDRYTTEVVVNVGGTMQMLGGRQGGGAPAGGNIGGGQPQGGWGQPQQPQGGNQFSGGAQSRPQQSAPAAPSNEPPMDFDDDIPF

B1: fluorescein-labeled SSB C-terminal peptide (peptide)
peptide: fluorescein-MDFDDDIPF
notes: also called flu-CTP; labeled C-terminal peptide
- Kd: > 100 µM
